Consider 1 substance from publication PMC7547737.

The target in one assay is FLAG-AKT^T308A (UniProt P31749). Nature of the assay: co-IP; SK-Br3 cells transfected with FLAG-tagged AKT constructs, starved with U0126, treated with TZ 20 min, cross-linked with DSP; anti-FLAG magnetic beads, 3 h at 4 °C; Western blot, amounts normalised on precipitated protein and input.
Another assay addresses FLAG-AKT^T308D (UniProt P31749). The assay is described as above.

In the case of “Ser/Thr-protein phosphatase 2A (PP2A)-catalytic subunit beta isoform (from UniProt P62714 1-309) (enzyme)”, the percent co-precipitated against wt AKT in the assay with FLAG-AKT^T308A and with FLAG-AKT^T308D was 60% each time.
